The target in this test is chemically synthesized dimannosylated peptide (DM), 12mer peptide from hemagglutinin (HA) with diman.

Among the data in paper PMC11112747, “Cyanovirin-N Binding to N-Acetyl-D-glucosamine Requires Carbohydrate-Binding Sites on Two Different Protomers” (Biochemistry, 2024) are Kd values, retold here.

Regarding “CVN2L0, a tandem-linked dimeric CVN2 with zero-linker length (tandem repeat of two cyanovirin-N molecules)”, the Kd (in general, the constant that tells how readily two partners part at equilibrium) turned out to be 3.94 µM. This counts as single-digit micromolar.
